Read-outs that look alike come from different tables or passages of the source.
Key:
[1] = Serum stability in mouse serum; type: in vitro ADME; details: 37 °C, ethanol precipitation, radio RP-HPLC
Protocol: The serum stability of [^64Cu]PDC-1 was measured in both human and mouse serum at 37 °C at 1, 4, and 24 h.
Mouse serum or human serum (0.5 mL) was combined with an aliquot of [^64Cu]PDC-1 (≤25 μL, 3.9–4.7 MBq) and incubated at 37 °C. At each time point (1, 4, and 24 h), an aliquot (50–200 μL) was taken, proteins precipitated with absolute ethanol and removed by centrifugation at 1500g for 4 min. The ethanol solution was diluted with water (1 mL) and analyzed by RP-HPLC.

[2] = Biodistribution, paired DX3puroβ6/DX3puro xenograft tumor mouse model; type: in vivo, mice; details: female, athymic nude, iv, total radioactivity, γ-counter, mean ± SD; for tissue uptake at 4 h / tissue uptake at 24 h / tissue uptake at 48 h: i.v.
Protocol: The biodistribution of [^64Cu]PDC-1 confirmed the αvβ6-selective tumor accumulation, with 4.46 ± 0.91% ID/g in the DX3puroβ6 (+) tumor at 4 h vs 0.56 ± 0.12% ID/g in the DX3puro (−) tumor (ratio = 8:1; Figure 6A, Table S3). […] For the BxPC-3 tumor, the uptake went from 4.61 ± 1.44% ID/g at 4 h to 3.73 ± 0.44 and 2.93 ± 0.80% ID/g, at 24 and 48 h, respectively (4 to 48 h: P = 0.054; Figure 6). […] Clearance from the blood was rapid, resulting in αvβ6 (+) tumor/blood ratios of ≥32:1 at 4 h (Table S5). [^64Cu]PDC-1 primarily cleared through the kidneys, from 50 to 64% ID/g at 4 h to ≤25% ID/g at 48 h (Figure 6). […] Accumulation in the liver remained steady between 1.5 and 2.2% ID/g at 4 to 48 h, and uptake in other organs such as muscle (≤0.9% ID/g) and pancreas (≤0.5% ID/g) was low at all time points (Figure 6).
All animal procedures conformed to the Animal Welfare Act and were approved by the University of California Davis Institutional Animal Care and Use Committee. All mice used for in vivo work were female athymic nude mice (6–8 weeks old) purchased from Charles River Laboratories (Wilmington, MA). For PET imaging and biodistribution studies, female athymic nude mice (6–8 weeks old) were injected subcutaneously with 3 × 10^6 DX3puro and 3 × 10^6 DX3puroβ6 cells in serum free DMEM on the right and left flank, respectively, or with 5 × 10^6 BxPC-3 cells in serum free RPMI 1640/Matrigel (1/1 v/v). Studies commenced once tumors reached a maximum diameter of ∼0.5 cm, approximately 3 weeks after inoculation. Food and water were available ad libitum. [^64Cu]PDC-1 was formulated in isotonic 0.9% saline to pH = 7.2 and administered intravenously (i.v.) via a catheter into the tail vein.
Aliquots of the formulated [^64Cu]PDC-1 in isotonic 0.9% saline (4.81–5.74 MBq, 1.7–2.1 μg, 0.26–0.31 nmol, 100 μL, pH 7.2) were injected i.v. as described above. Following the conscious uptake period, the mice were anesthetized (5% isoflurane), euthanized, and dissected (n ≥ 3/model/time point [4, 24, and 48 h]; the 48 h time point also included the imaging animals sacrificed after the PET scans). Tissues were collected, washed, weighed, and radioactivity measured in a γ-counter. Calibrated, decay-corrected radioactivity was expressed as the percentage of injected dose per gram of tissue (% ID/g). Data are reported as mean ± SD. The mean weights and standard deviation of the DX3puroβ6/DX3puro paired tumor model biodistribution mice were 24.3 ± 1.4 g at 4 h, 28.2 ± 2.9 g at 24 h, and 27.7 ± 2.6 g at 48 h. The mean weights and standard deviation of the BxPC-3 tumor model biodistribution mice were 25.1 ± 1.9 g at 4 h, 27.0 ± 1.1 g at 24 h and 27.1 ± 3.2 g at 48 h. For in vivo blocking studies, DOTA-2 (50 mg/kg, 205 nmol, 1.4 mg in 100 μL 0.9% saline) was injected i.v. into two animals/tumor model 10 min prior to [^64Cu]PDC-1. The animals were sacrificed after 4 h, tissues collected, washed, weighed, and radioactivity measured in a γ-counter. The mean weights and standard deviation for the blocking mice were 24.6 ± 0 and 27.9 ± 0.3 g for the DX3puroβ6/DX3puro paired and BxPC-3 tumor models, respectively.
Biodistribution data of [64Cu]PDC-1 in paired DX3puroβ6/DX3puro tumor model.
Table S3. Biodistribution of [ 64Cu]PDC-1 in mice bearing paired DX3puroβ6/DX3puro xenograft tumors.
Tissue uptake is expressed as the mean of the percentage of injected dose per gram of tissue ± standard
deviation (n = 4/ time point; n = 9 at 48 h); an = 3, bn = 8, cn = 7.

CC[C@H](C)[C@@H]([C@@H](CC(=O)N1CCC[C@H]1[C@H](OC)[C@@H](C)C(=O)N[C@H](C)[C@@H](O)c1ccccc1)OC)N(C)C(=O)[C@@H](NC(=O)[C@H](C(C)C)N(C)C(=O)OCc1ccc(NC(=O)[C@H](CCCNC(N)=O)NC(=O)[C@@H](NC(=O)CCOCCOCCNC(=O)CCN2C(=O)CC(SC[C@H](NC(=O)CN3CCN(CC(=O)O)CCN(CC(=O)O)CCN(CC(=O)O)CC3)C(=O)NCCOCCOCCOCCOCCOCCOCCOCCOCCOCCOCCOCCOCCOCCOCCOCCOCCOCCOCCOCCOCCOCCOCCOCCOCCOCCOCCOCCOCCC(=O)N[C@@H](CC(N)=O)C(=O)N[C@@H](C)C(=O)N[C@H](C(=O)N3CCC[C@H]3C(=O)N[C@@H](CC(N)=O)C(=O)N[C@@H](CC(C)C)C(=O)N[C@@H](CCCNC(=N)N)C(=O)NCC(=O)N[C@@H](CC(=O)O)C(=O)N[C@@H](CC(C)C)C(=O)N[C@@H](CCC(N)=O)C(=O)N[C@H](C(=O)N[C@@H](CC(C)C)C(=O)N[C@@H](C)C(=O)N[C@@H](CCC(N)=O)C(=O)N[C@@H](CCCNC(=N)N)C(=O)N[C@H](C(=O)N[C@@H](C)C(=O)N[C@@H](CCCNC(=N)N)C(=O)N[C@H](C(=O)NCCOCCOCCOCCOCCOCCOCCOCCOCCOCCOCCOCCOCCOCCOCCOCCOCCOCCOCCOCCOCCOCCOCCOCCOCCOCCOCCOCCOCCC(N)=O)[C@@H](C)O)C(C)C)C(C)C)C(C)C)C2=O)C(C)C)cc1)C(C)C (stereo partly drawn) [[^64Cu]PDC-1, metal not drawn]
remaining at 1 h ([1]; 1 h): 89% | remaining at 4 h ([1]; 4 h): 49% | remaining at 24 h ([1]; 24 h): 3% | tissue uptake at 4 h ([2]; DX3puro (αvβ6 −) tumor, 4 h p.i., n = 4, read-out: DX3puro (αvβ6 −) tumor uptake): 0.56 ± 0.12 %ID/g | tissue uptake at 24 h ([2]; DX3puro (αvβ6 −) tumor, 24 h p.i., n = 3, read-out: DX3puro (αvβ6 −) tumor uptake): 1.03 ± 0.12 %ID/g | tissue uptake at 48 h ([2]; DX3puro (αvβ6 −) tumor, 48 h p.i., n = 8, read-out: DX3puro (αvβ6 −) tumor uptake): 0.74 ± 0.2 %ID/g | tissue uptake at 4 h ([2]; DX3puroβ6 (αvβ6 +) tumor, 4 h p.i., n = 4, read-out: DX3puroβ6 (αvβ6 +) tumor uptake): 4.46 ± 0.91 %ID/g | tissue uptake at 24 h ([2]; DX3puroβ6 (αvβ6 +) tumor, 24 h p.i., n = 4, read-out: DX3puroβ6 (αvβ6 +) tumor uptake): 3.39 ± 0.56 %ID/g | tissue uptake at 48 h ([2]; DX3puroβ6 (αvβ6 +) tumor, 48 h p.i., n = 9, read-out: DX3puroβ6 (αvβ6 +) tumor uptake): 2.53 ± 0.37 %ID/g | tissue uptake at 4 h ([2]; bladder, 4 h p.i., n = 4, read-out: Bladder uptake): 2.12 ± 0.62 %ID/g | tissue uptake at 24 h ([2]; bladder, 24 h p.i., n = 4, read-out: Bladder uptake): 1.65 ± 0.44 %ID/g | tissue uptake at 48 h ([2]; bladder, 48 h p.i., n = 9, read-out: Bladder uptake): 1.66 ± 0.28 %ID/g | tissue uptake at 4 h ([2]; blood, 4 h p.i., n = 4, read-out: Blood uptake): 0.14 ± 0.02 %ID/g | tissue uptake at 24 h ([2]; blood, 24 h p.i., n = 4, read-out: Blood uptake): 0.29 ± 0.03 %ID/g | tissue uptake at 48 h ([2]; blood, 48 h p.i., n = 9, read-out: Blood uptake): 0.34 ± 0.09 %ID/g | tissue uptake at 4 h ([2]; bone, 4 h p.i., n = 4, read-out: Bone uptake): 0.43 ± 0.18 %ID/g | tissue uptake at 24 h ([2]; bone, 24 h p.i., n = 4, read-out: Bone uptake): 0.38 ± 0.08 %ID/g | tissue uptake at 48 h ([2]; bone, 48 h p.i., n = 9, read-out: Bone uptake): 0.33 ± 0.1 %ID/g | tissue uptake at 4 h ([2]; brain, 4 h p.i., n = 4, read-out: Brain uptake): 0.04 ± 0.01 %ID/g | tissue uptake at 24 h ([2]; brain, 24 h p.i., n = 4, read-out: Brain uptake): 0.07 ± 0.01 %ID/g | tissue uptake at 48 h ([2]; brain, 48 h p.i., n = 9, read-out: Brain uptake): 0.09 ± 0.03 %ID/g | tissue uptake at 4 h ([2]; gall bladder, 4 h p.i., n = 4, read-out: Gall bladder uptake): 3.64 ± 0.79 %ID/g | tissue uptake at 24 h ([2]; gall bladder, 24 h p.i., n = 4, read-out: Gall bladder uptake): 3.16 ± 0.49 %ID/g | tissue uptake at 48 h ([2]; gall bladder, 48 h p.i., n = 9, read-out: Gall bladder uptake): 1.42 ± 0.63 %ID/g | tissue uptake at 4 h ([2]; heart, 4 h p.i., n = 4, read-out: Heart uptake): 0.82 ± 0.17 %ID/g | tissue uptake at 24 h ([2]; heart, 24 h p.i., n = 4, read-out: Heart uptake): 0.84 ± 0.15 %ID/g | tissue uptake at 48 h ([2]; heart, 48 h p.i., n = 9, read-out: Heart uptake): 0.85 ± 0.18 %ID/g | tissue uptake at 4 h ([2]; kidney, 4 h p.i., n = 4, read-out: Kidney uptake): 63.9 ± 12.5 %ID/g | tissue uptake at 24 h ([2]; kidney, 24 h p.i., n = 4, read-out: Kidney uptake): 41.2 ± 4.47 %ID/g | tissue uptake at 48 h ([2]; kidney, 48 h p.i., n = 9, read-out: Kidney uptake): 22.9 ± 5.48 %ID/g | tissue uptake at 4 h ([2]; large intestines, 4 h p.i., n = 4, read-out: Lg. Intestines uptake): 6.25 ± 0.74 %ID/g | tissue uptake at 24 h ([2]; large intestines, 24 h p.i., n = 4, read-out: Lg. Intestines uptake): 3.98 ± 0.83 %ID/g | tissue uptake at 48 h ([2]; large intestines, 48 h p.i., n = 9, read-out: Lg. Intestines uptake): 3.04 ± 0.73 %ID/g | tissue uptake at 4 h ([2]; liver, 4 h p.i., n = 4, read-out: Liver uptake): 1.34 ± 0.29 %ID/g | tissue uptake at 24 h ([2]; liver, 24 h p.i., n = 4, read-out: Liver uptake): 2.25 ± 0.59 %ID/g | tissue uptake at 48 h ([2]; liver, 48 h p.i., n = 9, read-out: Liver uptake): 2.15 ± 0.62 %ID/g | tissue uptake at 4 h ([2]; lung, 4 h p.i., n = 4, read-out: Lung uptake): 3.08 ± 0.78 %ID/g | tissue uptake at 24 h ([2]; lung, 24 h p.i., n = 4, read-out: Lung uptake): 2.19 ± 0.42 %ID/g | tissue uptake at 48 h ([2]; lung, 48 h p.i., n = 9, read-out: Lung uptake): 1.71 ± 0.44 %ID/g | tissue uptake at 4 h ([2]; muscle, 4 h p.i., n = 4, read-out: Muscle uptake): 0.89 ± 0.11 %ID/g | tissue uptake at 24 h ([2]; muscle, 24 h p.i., n = 4, read-out: Muscle uptake): 0.56 ± 0.07 %ID/g | tissue uptake at 48 h ([2]; muscle, 48 h p.i., n = 9, read-out: Muscle uptake): 0.48 ± 0.14 %ID/g | tissue uptake at 4 h ([2]; pancreas, 4 h p.i., n = 4, read-out: Pancreas uptake): 0.36 ± 0.07 %ID/g | tissue uptake at 24 h ([2]; pancreas, 24 h p.i., n = 4, read-out: Pancreas uptake): 0.45 ± 0.05 %ID/g | tissue uptake at 48 h ([2]; pancreas, 48 h p.i., n = 9, read-out: Pancreas uptake): 0.52 ± 0.25 %ID/g | tissue uptake at 4 h ([2]; skin, 4 h p.i., n = 4, read-out: Skin uptake): 1.96 ± 0.5 %ID/g | tissue uptake at 24 h ([2]; skin, 24 h p.i., n = 4, read-out: Skin uptake): 1.26 ± 0.36 %ID/g | tissue uptake at 48 h ([2]; skin, 48 h p.i., n = 9, read-out: Skin uptake): 1 ± 0.34 %ID/g | tissue uptake at 4 h ([2]; small intestines, 4 h p.i., n = 4, read-out: Sm. Intestines uptake): 4.67 ± 0.66 %ID/g | tissue uptake at 24 h ([2]; small intestines, 24 h p.i., n = 4, read-out: Sm. Intestines uptake): 2.73 ± 0.28 %ID/g | tissue uptake at 48 h ([2]; small intestines, 48 h p.i., n = 9, read-out: Sm. Intestines uptake): 1.53 ± 0.21 %ID/g | tissue uptake at 4 h ([2]; spleen, 4 h p.i., n = 4, read-out: Spleen uptake): 0.21 ± 0.08 %ID/g | tissue uptake at 24 h ([2]; spleen, 24 h p.i., n = 4, read-out: Spleen uptake): 0.58 ± 0.03 %ID/g | tissue uptake at 48 h ([2]; spleen, 48 h p.i., n = 9, read-out: Spleen uptake): 0.54 ± 0.12 %ID/g | tissue uptake at 4 h ([2]; stomach, 4 h p.i., n = 4, read-out: Stomach uptake): 8.97 ± 0.76 %ID/g | tissue uptake at 24 h ([2]; stomach, 24 h p.i., n = 4, read-out: Stomach uptake): 4.86 ± 0.56 %ID/g | tissue uptake at 48 h ([2]; stomach, 48 h p.i., n = 9, read-out: Stomach uptake): 3 ± 0.56 %ID/g | excreta dose per gram or mL at 4 h ([2]; urine, 4 h p.i., n = 4): 13 ± 2.4 %ID/g | excreta dose per gram or mL at 24 h ([2]; urine, 24 h p.i., n = 4): 4.57 ± 0.87 %ID/g | excreta dose per gram or mL at 48 h ([2]; urine, 48 h p.i., n = 7): 1.6 ± 0.47 %ID/g
